According to US20040166543A1 (Dana-Farber, published 2004):

B1: MUC1/CD (purified hexahistidine tagged MUC1 cytoplasmic domain), unphosphorylated (other)
chain: CQCRRKNYGQLDIFPARDTYHPMSEYPTYHTHGRYVPPSSTDRSPYEKVSAGNGGSSLSYTNPAVAATSANL
notes: also called His-MUC1/CD; MUC1/CD (WT); not shown: hexahistidine tag
B2: MUC1/CD phosphorylated by c-Src (incubated with c-Src and ATP) (other)
chain: B1 chain
modifications: phosphotyrosine at 46 (YEKV site) and at other sites that are not named; made in vitro with purified c-Src and ATP
notes: also called phosphorylated MUC1/CD; not shown: hexahistidine tag

How the values were obtained:
[1] = target: T1, glutathione S-transferase (GST) (UniProt P08515 1-218 = GST); assay: GST pull-down, anti-MUC1/CD immunoblot (FIG. 1B)
T1 sequence (P08515 whole entry): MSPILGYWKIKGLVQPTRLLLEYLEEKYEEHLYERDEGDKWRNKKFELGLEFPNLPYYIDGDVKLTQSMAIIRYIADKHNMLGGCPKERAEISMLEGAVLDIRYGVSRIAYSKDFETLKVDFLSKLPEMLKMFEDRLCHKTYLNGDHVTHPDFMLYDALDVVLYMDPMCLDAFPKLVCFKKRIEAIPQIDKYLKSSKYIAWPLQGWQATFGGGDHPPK

[2] = target: T1, glutathione S-transferase (GST); assay: GST pull-down, anti-MUC1/CD immunoblot (FIG. 4A)
Experimental: The proteins in the eight different reaction mixtures were incubated with either GST or GST fused to β-catenin (“GST-β-Cat”). The resulting mixtures were incubated with glutathione-Sepharose 4B™ beads.
The beads were then added to the phosphorylation reaction mixture (described above) which was incubated for 1 h at 4° C.

| binding result [1] | binding result [2] | Binder |
| --- | --- | --- |
| no binding |  | B1 |
|  | no binding | B2 |
